Experimental findings from patent US20230406885A1, “CYCLIC PEPTIDES FOR TRAPPING INTERLEUKIN-1 BETA” (MERCK SHARP & DOHME LLC, priority 2022, published 2023) are described below.

The target in the experiment is Recombinant human IL-1β (BioLegend 579404) (human, UniProt P01584 117-269). The experiment in a line: cell-based or functional assay.

*1 amine or outer side, *2 acyl side, *3 side chain or, on linkers, in order; H or OH if unused. [ ]: non-standard residue; d: D form. TyrEtNAc = L-tyrosine O-ethyl acetamide, (S)-3-(4-(2-acetamidoethoxy)phenyl)-2-aminopropanoic acid, CC(=O)NCCOc1ccc(C[C@H](N[*:1])C(=O)[*:2])cc1; hSOMe = (S)-2-amino-4-methoxybutanoic acid, COCC[C@H](N[*:1])C(=O)[*:2]; Trp(4-Cl)(βS-Me) = C[C@@H](c1c[nH]c2cccc(Cl)c12)[C@H](N)C(=O)O; Pro(trans-4-NH2) = O=C([C@@H]1C[C@@H](N[*:3])CN1[*:1])[*:2]; Bip(4'-COOH) = N[C@@H](Cc1ccc(-c2ccc(C(=O)O)cc2)cc1)C(=O)O; Phe(4-COOH) = N[C@@H](Cc1ccc(C(=O)O)cc1)C(=O)O; hTyr = N[C@@H](CCc1ccc(O)cc1)C(=O)O; hPhe = N[C@@H](CCc1ccccc1)C(=O)O; dDab = NCC[C@@H](N)C(=O)O; dNMeA = CN[C@H](C)C(=O)O

B1: SEQ ID NO: 150 (Example No. 150) (peptide)
peptide: cyclo([TyrEtNAc]W[Phe(4-COOH)]G[Pro(trans-4-NH2)][Trp(4-Cl)(βS-Me)]D[dNMeA]G[Bip(4'-COOH)]WS[dA][hPhe])
SMILES: CC(=O)NCCOc1ccc(C[C@@H]2NC(=O)[C@H](CCc3ccccc3)NC(=O)[C@@H](C)NC(=O)[C@H](CO)NC(=O)[C@H](Cc3c[nH]c4ccccc34)NC(=O)[C@H](Cc3ccc(-c4ccc(C(=O)O)cc4)cc3)NC(=O)CNC(=O)[C@@H](C)N(C)C(=O)[C@H](CC(=O)O)NC(=O)[C@H]([C@@H](C)c3c[nH]c4cccc(Cl)c34)NC(=O)[C@@H]3C[C@@H](N)CN3C(=O)CNC(=O)[C@H](Cc3ccc(C(=O)O)cc3)NC(=O)[C@H](Cc3c[nH]c4ccccc34)NC2=O)cc1
B1: the “MRC5 IC50” value is 0.0633 nM.

B2: SEQ ID NO: 151 (Example No. 151) (peptide)
peptide: cyclo([TyrEtNAc]W[Phe(4-COOH)]G[Pro(trans-4-NH2)][Trp(4-Cl)(βS-Me)]D[dNMeA]G[Bip(4'-COOH)]WS[dA][hTyr])
SMILES: CC(=O)NCCOc1ccc(C[C@@H]2NC(=O)[C@H](CCc3ccc(O)cc3)NC(=O)[C@@H](C)NC(=O)[C@H](CO)NC(=O)[C@H](Cc3c[nH]c4ccccc34)NC(=O)[C@H](Cc3ccc(-c4ccc(C(=O)O)cc4)cc3)NC(=O)CNC(=O)[C@@H](C)N(C)C(=O)[C@H](CC(=O)O)NC(=O)[C@H]([C@@H](C)c3c[nH]c4cccc(Cl)c34)NC(=O)[C@@H]3C[C@@H](N)CN3C(=O)CNC(=O)[C@H](Cc3ccc(C(=O)O)cc3)NC(=O)[C@H](Cc3c[nH]c4ccccc34)NC2=O)cc1
B2: the “MRC5 IC50” value was 0.0759 nM.

B3: SEQ ID NO: 147 (Example No. 147) (peptide)
peptide: cyclo([TyrEtNAc]W[Phe(4-COOH)]G[Pro(trans-4-NH2)][Trp(4-Cl)(βS-Me)]D[dNMeA]G[Bip(4'-COOH)]W[hSOMe][dA][hTyr])
SMILES: COCC[C@@H]1NC(=O)[C@H](Cc2c[nH]c3ccccc23)NC(=O)[C@H](Cc2ccc(-c3ccc(C(=O)O)cc3)cc2)NC(=O)CNC(=O)[C@@H](C)N(C)C(=O)[C@H](CC(=O)O)NC(=O)[C@H]([C@@H](C)c2c[nH]c3cccc(Cl)c23)NC(=O)[C@@H]2C[C@@H](N)CN2C(=O)CNC(=O)[C@H](Cc2ccc(C(=O)O)cc2)NC(=O)[C@H](Cc2c[nH]c3ccccc23)NC(=O)[C@H](Cc2ccc(OCCNC(C)=O)cc2)NC(=O)[C@H](CCc2ccc(O)cc2)NC(=O)[C@@H](C)NC1=O
As to B3, the “MRC5 IC50” value was determined as 0.0926 nM.

B4: SEQ ID NO: 149 (Example No. 149) (peptide)
peptide: cyclo([TyrEtNAc]W[Phe(4-COOH)]G[Pro(trans-4-NH2)][Trp(4-Cl)(βS-Me)]D[dNMeA]G[Bip(4'-COOH)]WL[dDab][hTyr])
SMILES: CC(=O)NCCOc1ccc(C[C@@H]2NC(=O)[C@H](CCc3ccc(O)cc3)NC(=O)[C@@H](CCN)NC(=O)[C@H](CC(C)C)NC(=O)[C@H](Cc3c[nH]c4ccccc34)NC(=O)[C@H](Cc3ccc(-c4ccc(C(=O)O)cc4)cc3)NC(=O)CNC(=O)[C@@H](C)N(C)C(=O)[C@H](CC(=O)O)NC(=O)[C@H]([C@@H](C)c3c[nH]c4cccc(Cl)c34)NC(=O)[C@@H]3C[C@@H](N)CN3C(=O)CNC(=O)[C@H](Cc3ccc(C(=O)O)cc3)NC(=O)[C@H](Cc3c[nH]c4ccccc34)NC2=O)cc1
For B4, the “MRC5 IC50” value amounted to 0.81 nM.

B5: SEQ ID NO: 148 (Example No. 148) (peptide)
peptide: cyclo([TyrEtNAc]W[Phe(4-COOH)]G[Pro(trans-4-NH2)][Trp(4-Cl)(βS-Me)]D[dNMeA]G[Bip(4'-COOH)]WL[dA][hTyr])
SMILES: CC(=O)NCCOc1ccc(C[C@@H]2NC(=O)[C@H](CCc3ccc(O)cc3)NC(=O)[C@@H](C)NC(=O)[C@H](CC(C)C)NC(=O)[C@H](Cc3c[nH]c4ccccc34)NC(=O)[C@H](Cc3ccc(-c4ccc(C(=O)O)cc4)cc3)NC(=O)CNC(=O)[C@@H](C)N(C)C(=O)[C@H](CC(=O)O)NC(=O)[C@H]([C@@H](C)c3c[nH]c4cccc(Cl)c34)NC(=O)[C@@H]3C[C@@H](N)CN3C(=O)CNC(=O)[C@H](Cc3ccc(C(=O)O)cc3)NC(=O)[C@H](Cc3c[nH]c4ccccc34)NC2=O)cc1
Take B5: the “MRC5 IC50” value turned out to be 0.0483 nM.
